In patent publication US20190307907A1, “MOLECULAR SENSOR FOR NMR/MRI BASED ON ANALYTE-DEPENDENT SPECTRAL CHANGES OF TEMPORARILY ENCAPSULATED HYPERPOLARIZED 129XE” (KLINIKUM RECHTS DER ISAR DER TECHNISCHEN UNIVERSITÄT MÜNCHEN, priority 2016, published 2019):
pKd: −log10 of the molar value. Where no end group is shown, it is not given here. Cr‑A = cryptophane A cage on the Lys side chain; 5‑Fluo‑M = fluorescein maleimide

Legend:
[1] = biological target: T1, calmodulin (Homo sapiens, UniProt P0DP23); assay: Hyper-CEST spectra of cryptophane-conjugated peptides with calmodulin in absence and presence of calcium (FIG. 5); assay type: biochemical; conditions: peptide 1 μM, calmodulin 3 μM, MOPS; for Ca2+-dependent CEST unsuppression / signal change on calmodulin binding: calcium up to 100 μM; for CEST suppression (baseline, absence of calcium): no calcium, hyperpolarized 129Xe, 9.4 T
Protocol: Hyperpolarized Xenon was bubbled into buffered (MOPS) solutions containing different cryptophane bearing peptides indicated in the respective subfigures (1 μM) and calmodulin (3 μM) in the absence and presence of 100 μM calcium and CEST spectra were obtained on a 9.4 T Bruker AV 400 wide bore NMR spectrometer. (E) Effects of C-terminal portion of RS20 on the NMR-signal modulation. Replacement of the maleimide-Fluorescein by a maleimide capping group (NEM) partially unsuppresses the CEST effect.
However, the CEST suppression and Ca^2+-mediated unsuppression is weaker if the cryptophane cage is attached at the third lysine (@K3, FIG. 5B). […] (FIG. 5C).
(§1) The production, delivery and application of hyperpolarized Xe for NMR and MRI studies has been described previously including a full list of materials (Witte et al., 2012; Witte et al., 2014). Typically, hyperpolarized ^129Xe (20% polarization and more) is generated by spin exchange optical pumping using a 150 W continuous wave laser (795 nm, 0.5 nm bandwidth) in a custom-designed continuous flow setup at 4.5 bar absolute pressure using a gas mixture of 5% Xe (26.4% natural abundance of ^129Xe), 10% N2, and 85% He.
Experiments benefit from high field MRI scanners because of the increased spectral resolution for resolving the CEST response. As an example, a 9.4 T NMR spectrometer can be used for the NMR experiments. It requires gradient coils for MR imaging and a variable temperature unit for adjusting the sample temperature. A 10 mm inner-diameter double resonant probe (^129Xe (110 MHz) and ^iH (400 MHz)), can be used for excitation and detection.
The freshly hyperpolarized xenon gas mix is directly bubbled into solution for ca. 15 seconds at a total flow rate of 0.1 SLM followed by a 1 s delay (to allow possible remaining bubbles to collapse) before signal acquisition. To reduce foaming, 0.1% of Pluronic® L81 may be added to the sample. After bubbling, a saturation RF pulse is irradiated at the desired frequency and the signal of free Xe in solution is observed. ^129Xe Hyper-CEST MR images can be acquired using averages of a RARE sequence with a slice-selective 90° gaussian shaped excitation pulse and high RARE factor (up to 32 for a 32×32 matrix size) due to sufficiently slow T2 relaxation. Two images are acquired, one with an off-resonant saturation pulse for control and one with an on-resonant saturation pulse to induce signal loss in the vicinity of the sensor. Hyper-CEST MR images are obtained by a pixel-wise subtraction of the noise corrected off- and on-resonant images. All data analysis was performed with MATLAB®.

[2] = Circular dichroism and CEST spectra at different trifluoroethanol (TFE) concentrations (FIG. 12); assay type: physicochemical; conditions: for CEST signal in TFE: 20% and 50% TFE; for CEST signal in TFE / CEST signal in water: without Ca2+ or CaM; for helicity of the peptide moiety (CD spectra): different concentrations of TFE
From the text: FIG. 12: Spectroscopic changes upon conformational change.

[3] = biological target: T1, calmodulin; assay: Hyper-CEST calcium titration, binding curves of cryptophane-peptide sensors with calmodulin; conditions: from CEST binding curves; 2 μM calmodulin; free calcium 0 to 39 μM; MOPS buffer; read-out: apparent dissociation constant
Protocol: (A) CEST spectra from M13 with a cryptophane Cage and also harboring a fluorescein (G-K(Cr-A)-[…]-C(5-Fluo-M)-amid) where Cr-A denotes the cryptophane A cage attached on the lysine residue and 5-Fluo-M a fluorescein attached to a cysteine) in the presence of 2 μM calmodulin and in response to free calcium concentrations ranging from 0 to 39 μM (MOPS buffer) (B) CEST spectra from RS20 (GRR-K(Cr-A)-WQKTGHAVRAIGRLSSS-C(5-Fluo-M)-amid; same annotation of modifications as in (A)) plotted analogously as in (A). (C) Corresponding binding curves yielding an apparent dissociation constant of 0.91 μM and 1 μM for M13 and RS20 respectively.
as §1
Experiments benefit from high field MRI scanners because of the increased spectral resolution for resolving the CEST response. As an example, a 9.4 T NMR spectrometer can be used for the NMR experiments. […]

[4] = tested on: lysates obtained from HEK293 cells; assay: Functionality of the sensor in cell lysates (FIG. 13); assay type: biochemical; conditions: for sensor response on addition of saturating calcium: HEK293 lysate with CaM, saturating amounts of calcium; for sensor response on addition of just CaM: HEK293 lysate, calcium already present in the lysate
Protocol: FIG. 13: Functionality of the sensor in cell lysates. The sensor M13-based sensor (blue) and RS20-based sensor (red) were added to lysates obtained from HEK293 cells.

[5] = tested on: HEK293 cells; assay: Cellular uptake of cage-conjugated peptides, confocal microscopy and FACS (FIG. 8); assay type: cell-based; conditions: 25 μM, 20 minutes
Protocol: (A) Cage-conjugated peptides that were also labeled with fluorescein (25 μM) were incubated on HEK293 cells for 20 minutes followed by confocal microscopy imaging (nuclear counterstain with DAPI). (B) Analysis of FACS experiments with cells incubated with different peptides modified with cryptophane cages and fluorescein indicating labeling of the cells with the fluorescent peptides (sequences as indicated in FIG. 2; @K# indicates the lysine residue number used for conjugation of the cryptophane cage). […] The cellular uptake of similar EF-protein-binding peptides is likely due to their high scores on prediction tools for cell-penetration such as CPPpred or CellPPD.

Substance | Ca2+-dependent CEST unsuppression / signal change on calmodulin binding ([1]; listed as cage-conjugated calcineurin) | CEST suppression (baseline, absence of calcium) [1] | Ca2+-dependent CEST unsuppression / signal change on calmodulin binding ([1]; listed as @K3) | Ca2+-dependent CEST unsuppression / signal change on calmodulin binding ([1]; listed as RS20-cage@K2) | CEST suppression (baseline, absence of calcium) ([1]; listed as @K3) | CEST suppression (baseline, absence of calcium) ([1]; listed as RS20-cage@K2) | Ca2+-dependent CEST unsuppression / signal change on calmodulin binding [1] | CEST signal in TFE [2] | helicity of the peptide moiety (CD spectra) [2] | CEST signal in water [2] | pKd [3] | sensor response on addition of saturating calcium [4] | sensor response on addition of just CaM [4] | cellular uptake (confocal microscopy) [5]
ARKEVIRNKIRAIGK-CrytophaneCage-MARVFSVLR [calcineurin A peptide] | does not exhibit a change in the CEST effect | neither show a suppression |  |  |  |  |  |  |  |  |  |  |  | 
GRRKWQK(Cr-A)-TGHAVRAIGRLSSS-C(5-Fluo-M)-amid (GRRKWQK(Cr‑A)TGHAVRAIGRLSSSC(5‑Fluo‑M)-NH2) [Cr-A@K3_RS20_Fluorescein, RS20 peptide with cryptophane A shifted three amino acids toward the center, C-terminal fluorescein] |  |  | weaker | diminishes | weaker | diminishes the CEST suppression |  |  |  |  |  |  |  | 
GRR-K(Cr-A)-WQKTGHAVRAIGRLSSS-C(5-Fluo-M)-amid (GRRK(Cr‑A)WQKTGHAVRAIGRLSSSC(5‑Fluo‑M)-NH2) [Cr-A@K1_RS20_Fluorescein] |  | complete CEST suppression |  |  |  |  | strong, Ca^2+-dependent CEST unsuppression | turned on | increase of the helicity | no CEST signal | 6.00 | stronger response | turned on the sensor | uptake
G-K(Cr-A)-RRWKKNFIAVSAANRFKKISSSGAL-C(5-Fluo-M)-amid (GKRRWKKNFIAVSAANRFKKISSSGALC; cryptophane A on Lys; fluorescein on Cys; amide; Cr-A@K1_M13_Fluorescein) |  |  |  |  |  |  |  | turned on | increase of the helicity | no CEST signal | 6.04 | stronger response | turned on the sensor | 
